Laboratory results taken from paper PMC8184817, “Transmission of light signals from the light-oxygen-voltage core via the hydrophobic region of the β-sheet surface in aureochrome-1” (Scientific Reports, 2021).

What was measured:
Conditions in all cases: protein: recombinant; chain copies: 2; label: Alexa Fluor647 (EMSA); biotin (QCM); blunt; self-complementary palindrome, 2 copies
PZ V314I = target: T1, PZ V314I (Vaucheria frigida? (VfAUREO1), UniProt A8QW55 113-348, C162S;C182S;V314I); assay: EMSA; QCM; dark state; EC50 similar to light; EMSA: 5% polyacrylamide gel, 25 C, dark or blue light 5 W/m2; QCM: 27 MHz, QCM buffer, 25 C; buffer, salt and pH not given (earlier papers cited); EC50 values (nM, per monomer) only in figures
T1 sequence: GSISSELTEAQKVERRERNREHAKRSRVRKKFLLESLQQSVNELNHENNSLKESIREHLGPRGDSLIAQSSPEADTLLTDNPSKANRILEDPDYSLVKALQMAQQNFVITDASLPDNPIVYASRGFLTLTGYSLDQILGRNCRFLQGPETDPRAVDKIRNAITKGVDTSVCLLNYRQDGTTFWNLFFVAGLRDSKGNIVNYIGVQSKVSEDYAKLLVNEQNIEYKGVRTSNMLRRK

PZ V314A = target: T2, PZ V314A (Vaucheria frigida? (VfAUREO1), UniProt A8QW55 113-348, C162S;C182S;V314A); assay: EMSA; QCM; dark state; altered EC50; EMSA: 5% polyacrylamide gel, 25 C, dark or blue light 5 W/m2; QCM: 27 MHz, QCM buffer, 25 C; buffer, salt and pH not given (earlier papers cited); EC50 values (nM, per monomer) only in figures
T2 sequence: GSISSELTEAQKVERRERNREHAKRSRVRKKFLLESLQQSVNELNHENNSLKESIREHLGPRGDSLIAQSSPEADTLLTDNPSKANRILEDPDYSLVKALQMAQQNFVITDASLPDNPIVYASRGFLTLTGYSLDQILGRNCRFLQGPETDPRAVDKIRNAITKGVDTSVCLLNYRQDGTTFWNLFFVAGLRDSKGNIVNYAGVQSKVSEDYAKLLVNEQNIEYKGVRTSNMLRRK

PZ V316A = target: T3, PZ V316A (Vaucheria frigida? (VfAUREO1), UniProt A8QW55 113-348, C162S;C182S;V316A); assay: as above
T3 sequence: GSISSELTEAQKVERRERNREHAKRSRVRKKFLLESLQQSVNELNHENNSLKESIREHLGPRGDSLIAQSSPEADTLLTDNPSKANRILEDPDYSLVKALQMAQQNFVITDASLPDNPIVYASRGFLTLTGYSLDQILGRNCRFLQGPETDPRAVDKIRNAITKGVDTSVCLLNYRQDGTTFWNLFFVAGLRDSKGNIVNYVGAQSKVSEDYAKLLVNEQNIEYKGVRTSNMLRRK

PZ L212A = target: T4, PZ L212A (Vaucheria frigida? (VfAUREO1), UniProt A8QW55 113-348, C162S;C182S;L212A); assay: EMSA; QCM; dark state; EC50 similar to wtPZ; EMSA: 5% polyacrylamide gel, 25 C, dark or blue light 5 W/m2; QCM: 27 MHz, QCM buffer, 25 C; buffer, salt and pH not given (earlier papers cited); EC50 values (nM, per monomer) only in figures
T4 sequence: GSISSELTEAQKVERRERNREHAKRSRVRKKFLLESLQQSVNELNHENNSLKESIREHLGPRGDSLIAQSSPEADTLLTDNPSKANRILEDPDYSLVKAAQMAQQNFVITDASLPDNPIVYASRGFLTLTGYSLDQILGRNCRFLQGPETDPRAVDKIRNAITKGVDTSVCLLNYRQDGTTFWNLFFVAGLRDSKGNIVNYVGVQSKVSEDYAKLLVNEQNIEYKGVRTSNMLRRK

PZ Q217A = target: T5, PZ Q217A (Vaucheria frigida? (VfAUREO1), UniProt A8QW55 113-348, C162S;C182S;Q217A); assay: as above
T5 sequence: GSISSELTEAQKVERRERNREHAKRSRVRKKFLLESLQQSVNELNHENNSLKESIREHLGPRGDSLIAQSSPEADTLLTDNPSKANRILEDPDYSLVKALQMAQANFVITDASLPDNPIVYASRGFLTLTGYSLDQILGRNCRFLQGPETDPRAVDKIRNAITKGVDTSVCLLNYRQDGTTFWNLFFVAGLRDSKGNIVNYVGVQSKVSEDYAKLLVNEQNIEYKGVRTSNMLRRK

PZ N218A = target: T6, PZ N218A (Vaucheria frigida? (VfAUREO1), UniProt A8QW55 113-348, C162S;C182S;N218A); assay: as above
T6 sequence: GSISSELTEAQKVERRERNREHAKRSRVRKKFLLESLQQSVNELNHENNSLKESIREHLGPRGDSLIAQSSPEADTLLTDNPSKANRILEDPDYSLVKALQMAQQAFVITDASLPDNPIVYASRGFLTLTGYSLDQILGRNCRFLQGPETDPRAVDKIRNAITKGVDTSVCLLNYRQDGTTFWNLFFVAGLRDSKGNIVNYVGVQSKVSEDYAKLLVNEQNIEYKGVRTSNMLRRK

PZ Q216A = target: T7, PZ Q216A (Vaucheria frigida? (VfAUREO1), UniProt A8QW55 113-348, C162S;C182S;Q216A); assay: as above
T7 sequence: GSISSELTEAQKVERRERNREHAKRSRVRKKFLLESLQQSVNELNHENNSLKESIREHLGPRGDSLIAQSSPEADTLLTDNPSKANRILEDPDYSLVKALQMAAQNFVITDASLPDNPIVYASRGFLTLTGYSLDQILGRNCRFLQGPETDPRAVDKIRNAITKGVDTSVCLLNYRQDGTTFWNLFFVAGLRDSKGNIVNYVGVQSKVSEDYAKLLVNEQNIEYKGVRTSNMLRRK

Measured: binding result

B1: dsApo (dsDNA)
DNA 1: GCTGTCTGACGTCAGACAGC
DNA 2: GCTGTCTGACGTCAGACAGC
binds: all assays above
